# From ChEMBL document CHEMBL2074060, “MDR1 P-glycoprotein transports endogenous opioid peptides” (Peptides, 2001)
# Tested on: C[C@@H](NC(=O)[C@@H](N)Cc1ccc(O)cc1)C(=O)NCC(=O)N(C)[C@@H](Cc1ccccc1)C(=O)NCCO
# Experiment: TP_TRANSPORTER: uptake in membrane vesicle from MDR1-expressing SW1573/S1 cell
# Format: functional, cell membranes
substance,measurement,value
ATP-dependent translocase ABCB1 (Homo sapiens),Km,43 µM
